# Assay results reported in patent US9617326B2, “RTRAIL mutant and monomethyl auristatin E conjugate thereof” (Zhejiang University, priority 2012, dated 2017).
# System: HEK293 cells
# Experiment: In vitro killing/toxicity (CCK-8) on normal HEK293 cells
# Type: cell-based
# Conditions: 32-1000 ng/mL, 96 hours
# From the text: 4 types of cells were selected to measure in vitro anti-tumor activity of the rTRAIL mutant and the MMAE conjugate: TRAIL sensitive type (NCI-H460), TRAIL insensitive type (Hela), TRAIL resistant type (MCF-7) and normal cells (HEK293). All of these 4 types of cells had TRAIL death receptor on their surfaces.
# Hereinafter, TRAIL sensitive type NCI-H460 cell was taken as an example to give detailed description of the test procedure, including the following steps:
# (1) Digesting the NCI-H460 cells into individual cells, followed by diluting to 1×10^4 cells/mL, spreading the cells on 96-well plate (100 μL for each well), and culturing the cells for 24 hours under normal condition.
# (2) Diluting N109C, N109C-vcMMAE and S96C-vcMMAE with culture medium respectively, and adding them into the cell plate with final concentrations of 32, 63, 125, 250, 500, 1000 ng/mL for serving as the test groups, while using standard TRAIL (114-281) as the positive control group, using the buffer (used for dissolving the test sample, diluted with the culture medium in a same manner) as the negative control group, and using the culture medium (without adding any solution) as the blank control group. All the control groups and test groups were tested in triplicate. […]
substance,measurement,value
TRAIL (114-281): standard TRAIL (114-281) used as the positive control group,toxicity to normal cells,considerably low toxicity
